Measured values published in article PMC2831815.

B1: TraK (Aeromonas veronii) (protein)
chain: MKNKAGFIGFLLFVFALCSVGSLYLGGYMLLKKSGVDMSALSIHTFFDVNRDLGGDPAFKKIIAWGWIGFAIPYAIFLFFVGVMLVGLMPKKVIYGDGRLATPMDLARSGFFPKKGDKHKQPPILIGKMFKGRFKNSYIYFYGQQFLILYAPTRSGKGVGIVIPNCVNYPESIVVLDIKLENFFLSAGYRKEQGQECFLFSPDGFADNLDAARRGEIKSHRFNPLDYVSRSPLQRESDLKKIAAILYPTSGGENDTWNESASSLWIGLALYLLDMEKVEPKTKVAVSQIIKISVPGSGDPLEKWMELTIKAKSDILGDDTKQYFRKFMSAADRTRASILVNFNNGVAVFSNPITAAATDSSDFDLRDLRKKKMSVYLGLSPNSLVTHAKLVNLFFSLLVNENTKELPENNPELKYQCLLILDEFTSMGRVEIIQKAVGFTAGYNIRFMFILQNKGQLEDDKMYGKEGAETFIENTGVELYYPPKSVNDTAKAISEKIGVRDEKVSSISRSSQSGKTSRSKSTSTEKRAVLLPDEIVSLRDHKNKGGNMAVREIILSDFCRPFIANKIVYFEEPIFMERVNYARKNPIEIPFLFNEDERKTFTCDSISLGSVMKKPDLDNHDQADKSE
B2: TraE (Aeromonas veronii) (protein)
chain: MKQIKQTPLKKGRTEPVMRMYPDYQFHVSDNVVFTADKKALASIAIEGMPFESISDGVLESDFDSIKNFLVNMGKDGDVYLWTHLVKEKVSLDEEYHFKSDFLNRFSNQYTELFRGSNFFKSTYYLTFGIKYSNISEAIERLDEVIHQAKAVLGKYGAHVLTVDQNRVSGVADYLHLLLNKSHAEIPLSINPISSSIADSEWYFGYDSLELRNNEAEEKKFATNYVVKDFPMFTELGQWDFLLRLPYEFIITQSFIYEAPTKTLKEIDAQLNKMGSAGDAAENQQDELVLGKEVVTSGITLFGSYHCVLTVFGRTADEARKNGIKVSSEFVSAGKGFRFIRTNSAGAHCYFSHMPMNKIRPLATRRTITNLACTFSLHNYSHGKKRGNPIGDGTAIMPLKTVADGLYWFNTHYSEPGRDVRGQKIAGHAMILGATGAGKTTFEGAAAGFLQRFDPYMFVVDFNRSTELFVRAYGGSYFTLKEGEYTGLNPFQICDLDDELAPRLVQFLKSYVKTLAYDQSGKPCSDAQAEELAKAVDATMLLPREMRRLSTLLSRISDPELKIRLAKWCGAGQYAWAVDSPRNTFNPMDFKKVGFDTTVILEKTKDGVHPACEPLLAILFFYKSLMQREGQLMLSIIEEFWMPANFPLTQAMIKSALKAGRMKGEMMWLTSQSPEDAIYCEIFPALVQQTATKILLPNPDADLEGYKKIGLTVKEFDRLKKLGKESRTMLIKQSGSSCFAKMDLYGFDDFLPIISGSMEGITLCEKVRAELGTDNPDIWIPEFLKQLREE

Substrate: Nc1ncnc2c1ncn2[C@@H]1O[C@H](COP(=O)(O)OP(=O)(O)OP(=O)(O)O)[C@@H](O)[C@H]1O
Experiment: purified protein
Details: 10 mM MgCl2, pH 7.6, 37 °C, ATP 0.025-3.5 mM

Protein | Km (Discussion prints 0.96 mM instead) [mM] | Km [mM]
B1 | 0.92 | 
B2 |  | 0.55
